Ki data for eight substances are collected here from paper PMC9882641.

By Ki is commonly meant a measure of affinity in units of concentration, obtained from inhibition or displacement.

The target in one assay is activated MMP-2 (MMP-2ACT) (human) (UniProt P08253). The experiment in a line: enzyme inhibition assay (chromogenic substrate, fit to Morrison's tight binding equation); MMP-2ACT (0.6 nM), MMP-9CAT (3 nM) or MMP-14CAT (1 nM) incubated with 0-25 nM N-TIMP2 variant for 1 h at 37 C in 50 mM HEPES, 10 mM CaCl2, 0.05% Brij-35, 1 mM DTNB, pH 7.5; then 100 uM chromogenic substrate, absorbance at 412 nm; three independent experiments.
“N-TIMP2-A70DOPA (from UniProt P16035 27-153) (domain or fragment)”: the Ki was 0.785 nM.

Consider “N-TIMP2-A70HqAla (from UniProt P16035 27-153) (domain or fragment)”, for which the Ki amounted to 16.7 nM.

With “N-TIMP2-L100DOPA (from UniProt P16035 27-153) (domain or fragment)”, the Ki was 1 nM.

In the case of “N-TIMP2-S2DOPA (from UniProt P16035 27-153) (domain or fragment)”, the Ki is 3.14 nM.

On to “N-TIMP2-S2HqAla (from UniProt P16035 27-153) (domain or fragment)”, for which the Ki stood at 97.7 nM.

“N-TIMP2-S69DOPA (from UniProt P16035 27-153) (domain or fragment)” displayed an inhibitory constant (Ki) of 0.46 nM.

Turning to “N-TIMP2-S69HqAla (from UniProt P16035 27-153) (domain or fragment)”, the Ki was found to be 0.606 nM.

On to “N-TIMP2-Y36HqAla (from UniProt P16035 27-153) (domain or fragment)”, for which the Ki was found to be 0.413 nM.

The target in a further assay is human MMP-9 catalytic domain (MMP-9CAT) (human) (UniProt P14780). The assay is described as above.
On to “N-TIMP2-A70DOPA (from UniProt P16035 27-153) (domain or fragment)”, for which the Ki is 0.452 nM.

“N-TIMP2-A70HqAla (from UniProt P16035 27-153) (domain or fragment)” returned a Ki of 1.93 nM.

In turn, “N-TIMP2-L100DOPA (from UniProt P16035 27-153) (domain or fragment)” showed a Ki of 0.849 nM.

The substance “N-TIMP2-S2DOPA (from UniProt P16035 27-153) (domain or fragment)” returned a Ki of 0.623 nM.

The substance “N-TIMP2-S2HqAla (from UniProt P16035 27-153) (domain or fragment)” registered a Ki of 70.4 nM.

“N-TIMP2-S69DOPA (from UniProt P16035 27-153) (domain or fragment)”: the Ki was 0.468 nM.

Consider “N-TIMP2-S69HqAla (from UniProt P16035 27-153) (domain or fragment)”, for which the Ki is 0.449 nM.

“N-TIMP2-Y36HqAla (from UniProt P16035 27-153) (domain or fragment)”: the inhibitory constant (Ki) is 0.543 nM.

The next assay addresses human MMP-14 catalytic domain (MMP-14CAT) (human) (UniProt P50281). Described as above.
In turn, “N-TIMP2-A70DOPA (from UniProt P16035 27-153) (domain or fragment)” had an inhibitory constant (Ki) of 10.6 nM.

The substance “N-TIMP2-A70HqAla (from UniProt P16035 27-153) (domain or fragment)” displayed a Ki of 27.2 nM.

The substance “N-TIMP2-L100DOPA (from UniProt P16035 27-153) (domain or fragment)” registered an inhibition constant (Ki) of 14.2 nM.

On to “N-TIMP2-S2DOPA (from UniProt P16035 27-153) (domain or fragment)”, for which the Ki was determined as 14.6 nM.

Substance “N-TIMP2-S2HqAla (from UniProt P16035 27-153) (domain or fragment)” displayed a Ki of 97.7 nM.

Take “N-TIMP2-S69DOPA (from UniProt P16035 27-153) (domain or fragment)”: the Ki was 21.4 nM.

Regarding “N-TIMP2-S69HqAla (from UniProt P16035 27-153) (domain or fragment)”, the Ki worked out at 11.5 nM.

For the substance “N-TIMP2-Y36HqAla (from UniProt P16035 27-153) (domain or fragment)”, the inhibition constant Ki stood at 4.72 nM.
